Here are results for 5 molecules from patent US20030235863A1 (published 2003).

To fix the notation:
T1: N-terminal hexahistidine-tagged FPR (human, UniProt P21462 1-350)
T1 construct: Construct limits and junction are not described; also called N-H6:FPR
T1 sequence: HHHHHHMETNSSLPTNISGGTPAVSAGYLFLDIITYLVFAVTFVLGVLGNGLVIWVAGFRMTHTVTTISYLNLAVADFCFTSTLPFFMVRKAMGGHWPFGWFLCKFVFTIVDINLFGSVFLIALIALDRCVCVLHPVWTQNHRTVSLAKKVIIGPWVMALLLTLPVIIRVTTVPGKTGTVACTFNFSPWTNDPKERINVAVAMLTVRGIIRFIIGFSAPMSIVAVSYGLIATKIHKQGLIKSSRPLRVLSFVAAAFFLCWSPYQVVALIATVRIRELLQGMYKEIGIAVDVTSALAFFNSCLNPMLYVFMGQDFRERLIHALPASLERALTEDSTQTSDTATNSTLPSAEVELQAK

T2: C-terminal hexahistidine-tagged FPR (human, UniProt P21462 1-350)
T2 construct: Construct limits and junction are not described; also called FPR:C-H6; C-H6:FPR
T2 sequence: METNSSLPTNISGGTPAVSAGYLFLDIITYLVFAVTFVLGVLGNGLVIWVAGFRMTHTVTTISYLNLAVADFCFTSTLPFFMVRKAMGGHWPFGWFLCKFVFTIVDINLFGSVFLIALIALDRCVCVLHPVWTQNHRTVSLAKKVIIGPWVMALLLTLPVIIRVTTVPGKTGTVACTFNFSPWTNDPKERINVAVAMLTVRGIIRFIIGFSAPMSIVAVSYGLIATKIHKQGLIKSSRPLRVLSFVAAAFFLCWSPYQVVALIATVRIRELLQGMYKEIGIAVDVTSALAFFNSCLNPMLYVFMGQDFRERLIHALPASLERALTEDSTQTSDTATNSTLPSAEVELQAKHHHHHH

B1: formyl-MLFK-FITC (peptide)
peptide: For-MLFK
modifications: also: FITC conjugated, site not given here
notes: everywhere else it is fMLFK-FITC; also called fMLFK-FITC; fluorescent ligand
B2: fMLFF (peptide)
peptide: For-MLFF
B3: FPR-GFP fusion protein (receptor)
chain: METNSSLPTNISGGTPAVSAGYLFLDIITYLVFAVTFVLGVLGNGLVIWVAGFRMTHTVTTISYLNLAVADFCFTSTLPFFMVRKAMGGHWPFGWFLCKFVFTIVDINLFGSVFLIALIALDRCVCVLHPVWTQNHRTVSLAKKVIIGPWVMALLLTLPVIIRVTTVPGKTGTVACTFNFSPWTNDPKERINVAVAMLTVRGIIRFIIGFSAPMSIVAVSYGLIATKIHKQGLIKSSRPLRVLSFVAAAFFLCWSPYQVVALIATVRIRELLQGMYKEIGIAVDVTSALAFFNSCLNPMLYVFMGQDFRERLIHALPASLERALTEDSTQTSDTATNSTLPSAEVELQAKAAA
notes: Solubilized in dodecyl maltoside from membranes of transfected cells; also called R^F; fluorescent formyl peptide receptor; not shown: Clontech's EGFP (enhanced green fluorescent protein), from its first amino acid
B4: formyl peptide receptor (FPR), wild type, solubilized in dodecyl maltoside (receptor, human, UniProt P21462 1-350, looked up)
chain: METNSSLPTNISGGTPAVSAGYLFLDIITYLVFAVTFVLGVLGNGLVIWVAGFRMTHTVTTISYLNLAVADFCFTSTLPFFMVRKAMGGHWPFGWFLCKFVFTIVDINLFGSVFLIALIALDRCVCVLHPVWTQNHRTVSLAKKVIIGPWVMALLLTLPVIIRVTTVPGKTGTVACTFNFSPWTNDPKERINVAVAMLTVRGIIRFIIGFSAPMSIVAVSYGLIATKIHKQGLIKSSRPLRVLSFVAAAFFLCWSPYQVVALIATVRIRELLQGMYKEIGIAVDVTSALAFFNSCLNPMLYVFMGQDFRERLIHALPASLERALTEDSTQTSDTATNSTLPSAEVELQAK
notes: Crude detergent extract of membranes, not purified; the extract holds endogenous G protein subunits; also called wild type receptor; soluble FPR
B5: FPR-Giα2 fusion protein (receptor, human;rat)
chain: METNSSLPTNISGGTPAVSAGYLFLDIITYLVFAVTFVLGVLGNGLVIWVAGFRMTHTVTTISYLNLAVADFCFTSTLPFFMVRKAMGGHWPFGWFLCKFVFTIVDINLFGSVFLIALIALDRCVCVLHPVWTQNHRTVSLAKKVIIGPWVMALLLTLPVIIRVTTVPGKTGTVACTFNFSPWTNDPKERINVAVAMLTVRGIIRFIIGFSAPMSIVAVSYGLIATKIHKQGLIKSSRPLRVLSFVAAAFFLCWSPYQVVALIATVRIRELLQGMYKEIGIAVDVTSALAFFNSCLNPMLYVFMGQDFRERLIHALPASLERALTEDSTQTSDTATNSTLPSAEVELQAKAAAMGCTVSAEDKAAAERSKMIDKNLREDGEKAAREVKLLLLGAGESGKSTIVKQMKIIHEDGYSEEECRQYRAVVYSNTIQSIMAIVKAMGNLQIDFADPQRADDARQLFALSCAAEEQGMLPEDLSGVIRRLWADHGVQACFGRSREYQLNDSAAYYLNDLERIAQSDYIPTQQDVLRTRVKTTGIVETHFTFKDLHFKMFDVGGQRSERKKWIHCFEGVTAIIFCVALSAYDLVLAEDEEMNRMHESMKLFDSICNNKWFTDTSIILFLNKKDLFEEKITQSPLTICFPEYTGANKYDEAASYIQSKFEDLNKRKDTKEIYTHFTCATDTKNVQFVFDAVTDVIIKNNLKDCGLF
notes: Solubilized in dodecyl maltoside; also called FPR-αi2; FPR-Gαi2

No end group written: not given here. *: point of attachment. For = O=C* Bounds are passed on as bounds.

Test [1] has as its target T1, N-terminal hexahistidine-tagged FPR. The test can be described thus: receptor on DCNi beads, flow cytometry. (In general: A flow cytometer gives signals particle by particle.)
The target of test [2] is T2, C-terminal hexahistidine-tagged FPR. The experiment in a line: receptor on DCNi beads, flow cytometry.
For test [3], the target named is B4. The test can be described thus: soluble receptor in detergent, spectrofluorimetry. As to the method: (§1) Spectrofluorimetric Analysis of Soluble Complexes. Fluorescence was measured with an SLM 8000 spectrofluorimeter (SLM Instruments, Inc.) using the photon counting mode. The sample holder was fitted with a cylindrical cuvette adapter, which allowed the use of 200 μl samples in 7mm ×45 mm cylindrical cuvettes (Sienco; Wheat Ridge, Colo.), stirred with 2×5 mm stir bars (Bel-Art). Excitation was at 490 nm, and stray light was reduced with a 490+/−10 nm filter (Corion; now part of Spectra-Physics, Franklin, Mass.). Emission was monitored using a 520+/−10 nm filter (Corion) and a 500 nm long-pass filter (Kopp; Pittsburg, Pa.). Additions to samples during kinetic measurements were made through an injection port on the top of the sample holder with 10 μl glass syringes (Hamilton; Reno, Nev.). […] For accurate analysis, and for kinetic dissociation analysis, the percent of the control curve corresponding to the percent free ligand was subtracted from the receptor-containing curve.

Test [4] concerns the target T1, N-terminal hexahistidine-tagged FPR. The experiment in a line: soluble receptor in detergent, spectrofluorimetry. As to the method: as §1
In test [5] the target is T2, C-terminal hexahistidine-tagged FPR. The experiment in a line: soluble receptor in detergent, spectrofluorimetry. As to the method: as §1
Test [6] addresses T1, N-terminal hexahistidine-tagged FPR. The experiment in a line: soluble receptor in detergent, dissociation of L^F.
The target of test [7] is T2, C-terminal hexahistidine-tagged FPR. The experiment in a line: soluble receptor in detergent, dissociation of L^F.
The target of test [8] is B4. The experiment in a line: soluble receptor in detergent, spectrofluorimetry, dissociation of L^F. As to the method: as §1
The target in test [9] is T2, C-terminal hexahistidine-tagged FPR. The experiment in a line: receptor on DCNi beads, flow cytometry with rapid mixer, anti-FITC antibody added.
The target in test [10] is B4. The experiment in a line: spectrofluorimetry, soluble FPR in dodecyl maltoside, free ligand quenched by anti-FITC antibody. The text has this:
For accurate analysis, and for kinetic dissociation analysis, the percent of the control curve corresponding to the percent free ligand was subtracted from the receptor-containing curve.
The free ligand and bound ligand were discriminated using an antibody to fluorescein that rapidly quenched only the free ligand.

The target in test [11] is B3. The experiment in a line: flow cytometry, LRG assembly on DCNi G beads with 30 nM FPR-GFP. As to the method: Standard LRG Assembly Assay. […] Each mixture was mixed by pipetting to ensure a uniform starting suspension of the beads in 96 V-well plates (Costar), and then mixed at low speed on a vortex mixer at 7° for two hours. The 10 μl assays were individually brought to 200 μl with 0.1% dodecyl maltoside in buffer A in 12×75 mm tubes for flow cytometric measurement of fluorescence of the beads. LRG assembly was defined as the difference between fluorescence without GTPγS and that with GTPγS. All determinations were done in duplicate.

The target of test [12] is B4. The experiment in a line: spectrofluorimetric competition with L^F for soluble FPR; IC50 converted to Kd. As to the method:
as §1
(§2) Comparison of LR and LRG Affinities for a Family of Non-fluorescent Ligands.

Test [13] deals with B3. The experiment in a line: Kd from competition on soluble FPR divided by EC50 of LRG assembly with FPR-GFP.
Text: as §2

For test [14], the target named is G protein heterotrimer αi3β1H6γ2 on DCNi beads. The test can be described thus: flow cytometry, standard assembly (bar 3) against GTPγS (bar 4).
Chain of G protein heterotrimer αi3β1H6γ2 on DCNi beads (chain, as listed by the source, chain 1 of 3): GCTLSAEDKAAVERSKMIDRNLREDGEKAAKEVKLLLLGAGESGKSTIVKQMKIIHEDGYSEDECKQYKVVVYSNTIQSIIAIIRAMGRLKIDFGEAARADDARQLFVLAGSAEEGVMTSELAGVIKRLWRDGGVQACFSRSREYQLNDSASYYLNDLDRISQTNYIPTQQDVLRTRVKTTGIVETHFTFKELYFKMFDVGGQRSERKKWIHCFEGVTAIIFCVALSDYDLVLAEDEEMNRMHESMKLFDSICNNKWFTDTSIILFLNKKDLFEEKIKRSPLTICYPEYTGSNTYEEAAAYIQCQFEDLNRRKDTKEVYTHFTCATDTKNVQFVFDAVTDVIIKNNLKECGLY
Chain of G protein heterotrimer αi3β1H6γ2 on DCNi beads (chain, as listed by the source, chain 2 of 3): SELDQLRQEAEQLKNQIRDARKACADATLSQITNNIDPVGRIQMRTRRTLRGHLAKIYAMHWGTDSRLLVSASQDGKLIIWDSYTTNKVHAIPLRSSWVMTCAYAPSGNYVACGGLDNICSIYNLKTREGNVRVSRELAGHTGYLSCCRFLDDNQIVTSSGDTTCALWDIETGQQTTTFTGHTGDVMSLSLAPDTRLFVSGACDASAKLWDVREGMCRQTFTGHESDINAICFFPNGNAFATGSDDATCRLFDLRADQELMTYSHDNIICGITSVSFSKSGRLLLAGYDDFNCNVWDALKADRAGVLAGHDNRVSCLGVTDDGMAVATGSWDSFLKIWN
Chain of G protein heterotrimer αi3β1H6γ2 on DCNi beads (chain, as listed by the source, chain 3 of 3): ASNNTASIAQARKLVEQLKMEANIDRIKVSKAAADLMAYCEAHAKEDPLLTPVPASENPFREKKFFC
Test [15] has the same target. The test can be described thus: flow cytometry, L^FRG assembly on DCNi G beads.
The next test deals with T3, Gαi3β4γ2H6-FLAG.
T3 construct: Held on streptavidin-coated polystyrene beads through a biotinylated anti-FLAG antibody; also called αi3β4γ2-FLAG-H6
T3 sequence (P08753 2-354, chain 1 of 3): as the sequence (chain, as listed by the source, chain 1 of 3) above
T3 sequence (P29387 2-340, chain 2 of 3, further chain): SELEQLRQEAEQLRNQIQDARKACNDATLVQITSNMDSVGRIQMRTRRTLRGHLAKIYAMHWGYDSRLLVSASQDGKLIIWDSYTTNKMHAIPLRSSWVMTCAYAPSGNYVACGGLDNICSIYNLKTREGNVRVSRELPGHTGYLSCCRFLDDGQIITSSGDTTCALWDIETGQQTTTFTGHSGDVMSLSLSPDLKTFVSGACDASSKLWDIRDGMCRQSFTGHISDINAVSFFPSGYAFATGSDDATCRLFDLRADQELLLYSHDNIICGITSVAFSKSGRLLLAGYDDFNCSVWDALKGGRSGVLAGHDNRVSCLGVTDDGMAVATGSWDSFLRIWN
T3 sequence (P63212 2-68, chain 3 of 3, further chain): as the sequence (chain, as listed by the source, chain 3 of 3) above
The experiment in a line: flow cytometry, LRG assembly on anti-FLAG beads.

Test [16] has as its target G protein heterotrimer αi3β1H6γ2 on DCNi beads. The experiment in a line: flow cytometry, standard LRG assembly on nickel beads.
For test [17], the target named is β1H6γ2 dimer on DCNi beads. The experiment in a line: flow cytometry, βγ-coated DCNi beads, 1 µM GTP (bar 6) against GTPγS (bar 2).
Chain of β1H6γ2 dimer on DCNi beads (chain, as listed by the source, chain 1 of 2): as the sequence (chain, as listed by the source, chain 2 of 3) above
Chain of β1H6γ2 dimer on DCNi beads (chain, as listed by the source, chain 2 of 2): as the sequence (chain, as listed by the source, chain 3 of 3) above

In the case of B1, the dissociation constant (Kd) in [1] worked out at 8 nM; in test [2], 4 nM; in test [3], 5 nM; in [4] it was 7 nM; in test [5], 10 nM; in test [10] it was 4.8 nM. The “t1/2 (dissociation halftime)” value came out at 15 s in test [6], 14 s in test [7], 14 s in test [8] and 14 s in [9].

Take B2: in the test with FPR-GFP fusion protein [11], the EC50 was 27 nM. The molecule also returned a dissociation constant (Kd) in test [12] of 75 nM. In the test with FPR-GFP fusion protein [13], the “ratio of Kd (for LR) to EC50 (for LRG formation)” value was 2.8 ratio.

B3: in [14], the “total binding to background ratio” value was 4.9 ratio.

Molecule B4 returned a signal to background in test [15] not above 4 ratio. In addition, the “ratio of total signal to nonspecific signal” value (with Gαi3β4γ2H6-FLAG; in [16]) was 3 ratio each time.

With B5, the “total fluorescence to background ratio” value in test [17] turned out to be 2.7 ratio.

In general, Kd refers to the free concentration of one partner at which half of the binding sites on the other are occupied at equilibrium, for simple one-to-one binding. The term EC50 denotes the concentration at which the effect is half-maximal.
